# Assay results taken from article PMC3741069 (Biochemistry, 2013).
# Substrate: O=[N+]([O-])O
# Test: steady-state nitrate reductase assay, Michaelis-Menten fit
# Type: biochemical, Synechococcus elongatus
# Conditions: saturating reduced ferredoxin (Synechocystis sp. PCC 6803) as electron donor
row,Protein,Km [µM]
1,nitrate reductase (NarB) (Synechococcus elongatus PCC 7942 = FACHB-805; R160Q) (protein) MIDTAKTLCPYCGVGCGLEAVPPAQPGRATVRDREGTPIWQIRGDRQHPSSQGMVCVKGATVAESVSKSRLKYPMFRASLDDPFTEISWDEALDRLCDRIQQTQADYGKDGICFYGSGQFQTEDYYIAQKLVKGCLGTNNFDTNSQLCMSSAVSAYSLCLGSDGPPACYEDLDLADCLLIVGSNTAECHPILFNRYRKRHKQGGTNLIVVDPRCTPTAEVADLHLALKPGSDVALLNGLGWLLYQMGYVKKDFIANQTEGFEDWLAIIEDYPPQRTAELTGLAVAELVRAADLIASAQRWLSLWSMGVNQSIQGTAKATSLINLHLLTRQIGLPGCGPFSLTGQPNAMGGRETGGLAHLLPGYRKVIDPQHRADVETIWGLPMGSISPQPGRTAWQMIEGLEQGAVGFLWVAATNPAVSLPDVKRAQAALKRSPFTVLQDAYHPTETTTYAHLLLPAAQWSEKTGTMTNSERRVTLCQAFRQPPGEARADWQIFAEVGRRLGFAFDYTDAAAVFAEYVQVTAGRLCDLSGLSHELLAQAGPQQWPFPAGAEPTTESKRLYTKHHFAYADGRARFQPFHHLGVAEPPDDRYPLVLTVGRLYGHWHTQTRTGRIDKINKLHPSAFVEIHPRDADRYNISEGQAVVIRSRRGEGCFPAKVTTAISPGVLFVPMHWGALWGDRTEANALTHPAACPISGEPELKACAVQIEAASSTFTI,2.5 ± 0.3
2,nitrate reductase (NarB) (Synechococcus elongatus PCC 7942 = FACHB-805; K144R) (protein) MIDTAKTLCPYCGVGCGLEAVPPAQPGRATVRDREGTPIWQIRGDRQHPSSQGMVCVKGATVAESVSKSRLKYPMFRASLDDPFTEISWDEALDRLCDRIQQTQADYGKDGICFYGSGQFQTEDYYIAQRLVKGCLGTNNFDTNSRLCMSSAVSAYSLCLGSDGPPACYEDLDLADCLLIVGSNTAECHPILFNRYRKRHKQGGTNLIVVDPRCTPTAEVADLHLALKPGSDVALLNGLGWLLYQMGYVKKDFIANQTEGFEDWLAIIEDYPPQRTAELTGLAVAELVRAADLIASAQRWLSLWSMGVNQSIQGTAKATSLINLHLLTRQIGLPGCGPFSLTGQPNAMGGRETGGLAHLLPGYRKVIDPQHRADVETIWGLPMGSISPQPGRTAWQMIEGLEQGAVGFLWVAATNPAVSLPDVKRAQAALKRSPFTVLQDAYHPTETTTYAHLLLPAAQWSEKTGTMTNSERRVTLCQAFRQPPGEARADWQIFAEVGRRLGFAFDYTDAAAVFAEYVQVTAGRLCDLSGLSHELLAQAGPQQWPFPAGAEPTTESKRLYTKHHFAYADGRARFQPFHHLGVAEPPDDRYPLVLTVGRLYGHWHTQTRTGRIDKINKLHPSAFVEIHPRDADRYNISEGQAVVIRSRRGEGCFPAKVTTAISPGVLFVPMHWGALWGDRTEANALTHPAACPISGEPELKACAVQIEAASSTFTI,5.7 ± 2.5
3,nitrate reductase (NarB) (Synechococcus elongatus PCC 7942 = FACHB-805) (protein) MIDTAKTLCPYCGVGCGLEAVPPAQPGRATVRDREGTPIWQIRGDRQHPSSQGMVCVKGATVAESVSKSRLKYPMFRASLDDPFTEISWDEALDRLCDRIQQTQADYGKDGICFYGSGQFQTEDYYIAQKLVKGCLGTNNFDTNSRLCMSSAVSAYSLCLGSDGPPACYEDLDLADCLLIVGSNTAECHPILFNRYRKRHKQGGTNLIVVDPRCTPTAEVADLHLALKPGSDVALLNGLGWLLYQMGYVKKDFIANQTEGFEDWLAIIEDYPPQRTAELTGLAVAELVRAADLIASAQRWLSLWSMGVNQSIQGTAKATSLINLHLLTRQIGLPGCGPFSLTGQPNAMGGRETGGLAHLLPGYRKVIDPQHRADVETIWGLPMGSISPQPGRTAWQMIEGLEQGAVGFLWVAATNPAVSLPDVKRAQAALKRSPFTVLQDAYHPTETTTYAHLLLPAAQWSEKTGTMTNSERRVTLCQAFRQPPGEARADWQIFAEVGRRLGFAFDYTDAAAVFAEYVQVTAGRLCDLSGLSHELLAQAGPQQWPFPAGAEPTTESKRLYTKHHFAYADGRARFQPFHHLGVAEPPDDRYPLVLTVGRLYGHWHTQTRTGRIDKINKLHPSAFVEIHPRDADRYNISEGQAVVIRSRRGEGCFPAKVTTAISPGVLFVPMHWGALWGDRTEANALTHPAACPISGEPELKACAVQIEAASSTFTI,6.0 ± 1.0
4,nitrate reductase (NarB) (Synechococcus elongatus PCC 7942 = FACHB-805; K144Q) (protein) MIDTAKTLCPYCGVGCGLEAVPPAQPGRATVRDREGTPIWQIRGDRQHPSSQGMVCVKGATVAESVSKSRLKYPMFRASLDDPFTEISWDEALDRLCDRIQQTQADYGKDGICFYGSGQFQTEDYYIAQQLVKGCLGTNNFDTNSRLCMSSAVSAYSLCLGSDGPPACYEDLDLADCLLIVGSNTAECHPILFNRYRKRHKQGGTNLIVVDPRCTPTAEVADLHLALKPGSDVALLNGLGWLLYQMGYVKKDFIANQTEGFEDWLAIIEDYPPQRTAELTGLAVAELVRAADLIASAQRWLSLWSMGVNQSIQGTAKATSLINLHLLTRQIGLPGCGPFSLTGQPNAMGGRETGGLAHLLPGYRKVIDPQHRADVETIWGLPMGSISPQPGRTAWQMIEGLEQGAVGFLWVAATNPAVSLPDVKRAQAALKRSPFTVLQDAYHPTETTTYAHLLLPAAQWSEKTGTMTNSERRVTLCQAFRQPPGEARADWQIFAEVGRRLGFAFDYTDAAAVFAEYVQVTAGRLCDLSGLSHELLAQAGPQQWPFPAGAEPTTESKRLYTKHHFAYADGRARFQPFHHLGVAEPPDDRYPLVLTVGRLYGHWHTQTRTGRIDKINKLHPSAFVEIHPRDADRYNISEGQAVVIRSRRGEGCFPAKVTTAISPGVLFVPMHWGALWGDRTEANALTHPAACPISGEPELKACAVQIEAASSTFTI,3.3 ± 0.5
